Measured values published in the supplement of paper PMC10567573.

B1: RAD51 (parent)
chain: RFLRMLLRLADEFGVAVVITNQVV

Variants of: B1
Assay: protein stability index of a GFP-peptide fusion (GPS, HEK-293T) (PSI 1-6); higher = more stable
Settings: c terminus: a fixed tail appended
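Further: lentivirally expressed fusions sorted by FACS into six bins by GFP to DsRed ratio, PSI derived from sequencing read proportions per bin multiplied by bin number.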

Variant	protein stability index
RFLRMLLRLADAFGVAVVITNQVV	2.02
RFLRMLLRLADGFGVAVVITNQVV	1.3
RFLRMLLRLADDFGVAVVITNQVV	2.48
RFLRMLLRLADFFGVAVVITNQVV	3.25
RFLRMLLRLADHFGVAVVITNQVV	3.24
RFLRMLLRLADCFGVAVVITNQVV	3.13
RFLRMLLRLADIFGVAVVITNQVV	3.64
RFLRMLLRLADKFGVAVVITNQVV	2.42
RFLRMLLRLASEFGVAVVITNQVV	2.32
RFLRMLLRLALEFGVAVVITNQVV	2.46
RFLRMLLRLATEFGVAVVITNQVV	2.51
RFLRMLLRLAYEFGVAVVITNQVV	3.81
RFLRMLLRLAPEFGVAVVITNQVV	1.85
RFLRMLLRLAAEFGVAVVITNQVV	3.02
RFLRMLLRLAKEFGVAVVITNQVV	3.43
RFLRMLLRLAIEFGVAVVITNQVV	2.43
RFLRMLLRLAEEFGVAVVITNQVV	1.97
RFLRMLLRLAREFGVAVVITNQVV	2.85
RFLRMLLRLACEFGVAVVITNQVV	2.06
RFLRMLLRLAVEFGVAVVITNQVV	2.46
RFLRMLLRLANEFGVAVVITNQVV	1.66
RFLRMLLRNADEFGVAVVITNQVV	2.37
RFLRMLLRMADEFGVAVVITNQVV	1.54
RFLRMLLRYADEFGVAVVITNQVV	2.89

Variant	protein stability index
RFLRMLLRKADEFGVAVVITNQVV	1.98
RFLRMLLRPADEFGVAVVITNQVV	3.32
RFLRMLLRIADEFGVAVVITNQVV	2.52
RFLRMLLRVADEFGVAVVITNQVV	2.38
RFLRMLLREADEFGVAVVITNQVV	1.65
RFLRMLLRTADEFGVAVVITNQVV	2.51
RFLRMLLRQADEFGVAVVITNQVV	2.88
RFLRMLLRGADEFGVAVVITNQVV	3.55
RFLRMLLRSADEFGVAVVITNQVV	1.76
RFLRMLLRDADEFGVAVVITNQVV	2.1
RFLRMLLRRADEFGVAVVITNQVV	1.7
RFLRMLLRFADEFGVAVVITNQVV	1.76
RFLTMLLRLADEFGVAVVITNQVV	2.42
RFLFMLLRLADEFGVAVVITNQVV	2.58
RFLVMLLRLADEFGVAVVITNQVV	1.91
RFLHMLLRLADEFGVAVVITNQVV	2.49
RFLCMLLRLADEFGVAVVITNQVV	2.77
RFLQMLLRLADEFGVAVVITNQVV	1.92
RFLEMLLRLADEFGVAVVITNQVV	1.23
RFLWMLLRLADEFGVAVVITNQVV	1.77
RFLIMLLRLADEFGVAVVITNQVV	2.45
RFLPMLLRLADEFGVAVVITNQVV	2.39
RFLDMLLRLADEFGVAVVITNQVV	1.96
RFLMMLLRLADEFGVAVVITNQVV	1.97

Variant	protein stability index
RFLAMLLRLADEFGVAVVITNQVV	2.24
RFLNMLLRLADEFGVAVVITNQVV	3.36
RFLYMLLRLADEFGVAVVITNQVV	2.93
RFLKMLLRLADEFGVAVVITNQVV	2.82
RFLSMLLRLADEFGVAVVITNQVV	3.21
DFLRMLLRLADEFGVAVVITNQVV	2
WFLRMLLRLADEFGVAVVITNQVV	3
PFLRMLLRLADEFGVAVVITNQVV	2.08
IFLRMLLRLADEFGVAVVITNQVV	2.9
NFLRMLLRLADEFGVAVVITNQVV	2.71
MFLRMLLRLADEFGVAVVITNQVV	2.43
FFLRMLLRLADEFGVAVVITNQVV	1.92
HFLRMLLRLADEFGVAVVITNQVV	1.78
EFLRMLLRLADEFGVAVVITNQVV	2.06
GFLRMLLRLADEFGVAVVITNQVV	2.51
SFLRMLLRLADEFGVAVVITNQVV	2.27
LFLRMLLRLADEFGVAVVITNQVV	2.12
YFLRMLLRLADEFGVAVVITNQVV	2.8
QFLRMLLRLADEFGVAVVITNQVV	1.79
KFLRMLLRLADEFGVAVVITNQVV	2.54
TFLRMLLRLADEFGVAVVITNQVV	1.37
VFLRMLLRLADEFGVAVVITNQVV	1.52
RCLRMLLRLADEFGVAVVITNQVV	1.75
RWLRMLLRLADEFGVAVVITNQVV	1.88

Variant	protein stability index
RTLRMLLRLADEFGVAVVITNQVV	3.18
RHLRMLLRLADEFGVAVVITNQVV	1.78
RILRMLLRLADEFGVAVVITNQVV	2.4
RRLRMLLRLADEFGVAVVITNQVV	1.7
RGLRMLLRLADEFGVAVVITNQVV	1.75
RVLRMLLRLADEFGVAVVITNQVV	1.59
RELRMLLRLADEFGVAVVITNQVV	1.51
RDLRMLLRLADEFGVAVVITNQVV	2.27
RPLRMLLRLADEFGVAVVITNQVV	2.89
RQLRMLLRLADEFGVAVVITNQVV	2.22
RALRMLLRLADEFGVAVVITNQVV	1.89
RLLRMLLRLADEFGVAVVITNQVV	1.6
RNLRMLLRLADEFGVAVVITNQVV	2.1
RYLRMLLRLADEFGVAVVITNQVV	2.21
RKLRMLLRLADEFGVAVVITNQVV	1.39
RSLRMLLRLADEFGVAVVITNQVV	1.91
RMLRMLLRLADEFGVAVVITNQVV	2.29
RFLRHLLRLADEFGVAVVITNQVV	3.79
RFLRQLLRLADEFGVAVVITNQVV	2.11
RFLRALLRLADEFGVAVVITNQVV	3.9
RFLRYLLRLADEFGVAVVITNQVV	2.57
RFLRSLLRLADEFGVAVVITNQVV	2.93
RFLRLLLRLADEFGVAVVITNQVV	2.13
RFLRKLLRLADEFGVAVVITNQVV	4.13

Variant	protein stability index
RFLRILLRLADEFGVAVVITNQVV	2.23
RFLRRLLRLADEFGVAVVITNQVV	1.83
RFLRELLRLADEFGVAVVITNQVV	2.43
RFLRFLLRLADEFGVAVVITNQVV	2.15
RFLRNLLRLADEFGVAVVITNQVV	1.93
RFLRDLLRLADEFGVAVVITNQVV	2.28
RFLRCLLRLADEFGVAVVITNQVV	3.05
RFLRTLLRLADEFGVAVVITNQVV	3.18
RFLRMWLRLADEFGVAVVITNQVV	2.54
RFLRMMLRLADEFGVAVVITNQVV	2.02
RFLRMCLRLADEFGVAVVITNQVV	2.78
RFLRMHLRLADEFGVAVVITNQVV	1.55
RFLRMRLRLADEFGVAVVITNQVV	2.89
RFLRMGLRLADEFGVAVVITNQVV	2.56
RFLRMFLRLADEFGVAVVITNQVV	3.14
RFLRMVLRLADEFGVAVVITNQVV	2.54
RFLRMTLRLADEFGVAVVITNQVV	3.04
RFLRMSLRLADEFGVAVVITNQVV	3.28
RFLRMPLRLADEFGVAVVITNQVV	3.81
RFLRMQLRLADEFGVAVVITNQVV	4.57
RFLRMALRLADEFGVAVVITNQVV	1.91
RFLRMYLRLADEFGVAVVITNQVV	3.5
RFLRMNLRLADEFGVAVVITNQVV	2.75
RFLRMKLRLADEFGVAVVITNQVV	1.96

Variant	protein stability index
RFNRMLLRLADEFGVAVVITNQVV	3.69
RFQRMLLRLADEFGVAVVITNQVV	1.78
RFARMLLRLADEFGVAVVITNQVV	4.15
RFVRMLLRLADEFGVAVVITNQVV	3.98
RFRRMLLRLADEFGVAVVITNQVV	1.17
RFMRMLLRLADEFGVAVVITNQVV	2.19
RFSRMLLRLADEFGVAVVITNQVV	3.09
RFIRMLLRLADEFGVAVVITNQVV	1.35
RFKRMLLRLADEFGVAVVITNQVV	2.6
RFHRMLLRLADEFGVAVVITNQVV	2.75
RFWRMLLRLADEFGVAVVITNQVV	2.03
RFDRMLLRLADEFGVAVVITNQVV	2.04
RFCRMLLRLADEFGVAVVITNQVV	1.78
RFERMLLRLADEFGVAVVITNQVV	3.2
RFYRMLLRLADEFGVAVVITNQVV	2.14
RFGRMLLRLADEFGVAVVITNQVV	2.62
RFTRMLLRLADEFGVAVVITNQVV	3.74
RFLRMLHRLADEFGVAVVITNQVV	2.34
RFLRMLARLADEFGVAVVITNQVV	1.25
RFLRMLYRLADEFGVAVVITNQVV	2.13
RFLRMLQRLADEFGVAVVITNQVV	2.34
RFLRMLDRLADEFGVAVVITNQVV	1.3
RFLRMLERLADEFGVAVVITNQVV	2.69
RFLRMLSRLADEFGVAVVITNQVV	1.6

Variant	protein stability index
RFLRMLPRLADEFGVAVVITNQVV	2.49
RFLRMLGRLADEFGVAVVITNQVV	3.06
RFLRMLKRLADEFGVAVVITNQVV	1.98
RFLRMLNRLADEFGVAVVITNQVV	1.71
RFLRMLCRLADEFGVAVVITNQVV	2.54
RFLRMLVRLADEFGVAVVITNQVV	2.15
RFLRMLWRLADEFGVAVVITNQVV	1.94
RFLRMLRRLADEFGVAVVITNQVV	1.49
RFLRMLIRLADEFGVAVVITNQVV	2.79
RFLRMLTRLADEFGVAVVITNQVV	2.6
RFLRMLMRLADEFGVAVVITNQVV	1.55
RFLRMLFRLADEFGVAVVITNQVV	2.04
RFLRMLLSLADEFGVAVVITNQVV	2.96
RFLRMLLCLADEFGVAVVITNQVV	2.36
RFLRMLLQLADEFGVAVVITNQVV	2.09
RFLRMLLWLADEFGVAVVITNQVV	1.83
RFLRMLLNLADEFGVAVVITNQVV	1.78
RFLRMLLMLADEFGVAVVITNQVV	2.17
RFLRMLLILADEFGVAVVITNQVV	3.12
RFLRMLLALADEFGVAVVITNQVV	1.42
RFLRMLLHLADEFGVAVVITNQVV	3.25
RFLRMLLDLADEFGVAVVITNQVV	2.57
RFLRMLLLLADEFGVAVVITNQVV	3.02
RFLRMLLVLADEFGVAVVITNQVV	2.87

Variant	protein stability index
RFLRMLLGLADEFGVAVVITNQVV	1.46
RFLRMLLFLADEFGVAVVITNQVV	2.47
RFLRMLLKLADEFGVAVVITNQVV	2.33
RFLRMLLRLQDEFGVAVVITNQVV	1.82
RFLRMLLRLVDEFGVAVVITNQVV	1.95
RFLRMLLRLEDEFGVAVVITNQVV	2.5
RFLRMLLRLIDEFGVAVVITNQVV	3.61
RFLRMLLRLMDEFGVAVVITNQVV	3.27
RFLRMLLRLFDEFGVAVVITNQVV	2.21
RFLRMLLRLYDEFGVAVVITNQVV	3.62
RFLRMLLRLCDEFGVAVVITNQVV	1.79
RFLRMLLRLTDEFGVAVVITNQVV	3.2
RFLRMLLRLPDEFGVAVVITNQVV	2.33
RFLRMLLRLNDEFGVAVVITNQVV	2.58
RFLRMLLRLLDEFGVAVVITNQVV	3.03
RFLRMLLRLHDEFGVAVVITNQVV	1.64
RFLRMLLRLDDEFGVAVVITNQVV	1.97
RFLRMLLRLRDEFGVAVVITNQVV	1.65
RFLRMLLRLSDEFGVAVVITNQVV	1.65
RFLRMLLRLKDEFGVAVVITNQVV	2.9
